As usually defined, the Kd is the constant that tells how readily two partners part at equilibrium. Usually EC50 (read off the curve) stands for the concentration at which the effect is half-maximal. Lower therefore signals an effect from little substance.

For experiment [1], the target named is human TIGIT expressed on cells (YTS-TIGIT transfectants, NK cells of healthy donors, CD8+ TILs) (human) (UniProt Q495A1). Briefly: FACS on YTS-TIGIT cells in the presence of 2.5 pmole PVR-Fc, bound antibody detected with anti-mouse IgG Alexa Fluor 647.
Experiment [2] shares this target. Briefly: FACS blocking assay on YTS-TIGIT cells: antibody titrated against 2.5 pmole PVR-Fc, bound PVR-Fc detected.
For experiment [3] the target is unchanged. Briefly: FACS on 75×10^3 YTS-TIGIT cells, serial dilutions 250 nM to 65 fM.
In experiment [4] the target is T1, human TIGIT from two commercial sources (loaded on Biacore biosensor) (human, UniProt Q495A1 22-141).
T1 sequence (looked up): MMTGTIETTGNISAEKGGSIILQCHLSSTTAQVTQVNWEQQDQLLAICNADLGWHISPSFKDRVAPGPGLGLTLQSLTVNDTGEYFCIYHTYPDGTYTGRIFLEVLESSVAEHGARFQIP
Briefly: SPR (Biacore), human TIGIT on the biosensor; one of two commercial sources; the other of two TIGIT sources (source not named). Here is the method:
(§1) Surface plasmon resonance (SPR) Biosensor Biacore™ T100 (GE Healthcare) was used to determine Koff, Kon and KD between the antibodies and TIGIT.
(§2) Full binding kinetic analyses of the mAbs to human TIGIT from two sources were carried out using Biacore.
(Surface plasmon resonance follows binding to a sensor surface in real time, without labels.)

Experiment [5] deals with T2, human TIGIT expressed on cells (YTS-TIGIT transfectants, NK cells of healthy donors, CD8+ TILs) (human, UniProt Q495A1 22-244).
T2 construct: whole, on cells; also called hTIGIT; T-cell immunoglobulin and ITIM domain
T2 sequence (looked up): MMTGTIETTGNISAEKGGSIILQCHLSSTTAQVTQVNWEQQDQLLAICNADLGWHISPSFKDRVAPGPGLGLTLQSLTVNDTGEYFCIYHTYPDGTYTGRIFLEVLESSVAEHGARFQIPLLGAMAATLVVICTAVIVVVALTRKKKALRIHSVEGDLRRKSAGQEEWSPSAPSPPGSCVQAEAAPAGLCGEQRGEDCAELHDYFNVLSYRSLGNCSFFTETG
Briefly: FACS titration on YTS-TIGIT cells, fluorescence intensity against antibody concentration. The source says: FIG. 6A. […] Background—staining of mIgG (grey filled histograms). Each panel represents a specific concentration of the antibodies as indicated. Y-axis of each panel is cell counts and X-axis is fluorescence intensity (FL1-H).

For experiment [6], the target named is T1, human TIGIT from two commercial sources …. Briefly: SPR (Biacore), human TIGIT on the biosensor; average of two commercial sources; average of the two TIGIT sources. Here is the method: as §1, §2
For experiment [7] the target is unchanged. Briefly: SPR (Biacore), human TIGIT on the biosensor; one of two commercial sources; one of two TIGIT sources (source not named). As to the method:
as §1, §2

Turning to “commercial anti-TIGIT antibody MBSA43 (eBioscience Cat#12-9500-42)”, in experiment [1], the MFI of bound antibody at 0.014 pmol was 64, the MFI of bound antibody at 0.028 pmol amounted to 88, the MFI of bound antibody at 0.056 pmol is 150 and the MFI of bound antibody at 0.115 pmol was determined as 224. Besides, in experiment [1], the MFI of bound antibody at 0.21 pmol stood at 302, the MFI of bound antibody at 0.425 pmol was found to be 325, the MFI of bound antibody at 0.85 pmol is 380 and the MFI of bound antibody at 27 pmol came to 445. In addition, in experiment [2], the MFI of bound PVR-Fc, antibody at 0.014 pmol came to 34; the MFI of bound PVR-Fc, antibody at 0.028 pmol turned out to be 27.1; the MFI of bound PVR-Fc, antibody at 0.056 pmol amounted to 22.6; the MFI of bound PVR-Fc, antibody at 0.115 pmol came to 12.6. For the same molecule, in experiment [2], the MFI of bound PVR-Fc, antibody at 0.21 pmol worked out at 7.8 and the MFI of bound PVR-Fc, antibody at 0.425 pmol turned out to be 4.5. Moreover, the lowest concentration at which cells were stained in experiment [3] is more than 1950 fM.

B1: anti human TIGIT monoclonal antibody VSIG9#1 (antibody, V domains shown)
VH: QVQLQESGAELARPGASVKLSCKASGYTFTSYGISWVKQRTGQGLEWIGEIYPRSGNTYYNEKFKGKATLTADKSSSTAYMELSSLTSEDSAVYFCARKGPYYTKNEDYWGQGTILTVSS
VL: DIQMTQSPASLAASVGETVTITCRASEHIYYSLAWYQQKQGKSPQLLIYNANSLEDGVPSRFSGSGSGTQYSMKINSMQPEDTATYFCKQAYDVPRTFGGGTKLEIKR
notes: Mouse monoclonal antibody from a hybridoma; It was detected with anti-mouse IgG; also called Vsig9.01; anti TIGIT-VSIG9#1
In the case of B1, the results for the Kd in experiment [4], in experiment [6] and in experiment [7] were 0.387 nM, 0.45 nM and 0.513 nM, respectively. Further, the 50% effective concentration (EC50 (read off the curve)) in experiment [5] is approximately 7 pM.

B2: anti human TIGIT monoclonal antibody 258-CS1#4 (antibody, V domains shown)
VH: QVQLLQPGAELVKPGASVKLSCKASGYTFTIYCIHWVKQRPGQGLEWIGEISPSNGRTIYNEKFKNKATLTIDKSSTTAYMQLSSLTSEDSAVYCCAISDGYDGYYFDYWGQGTTLTVSS
VL: DIQMTQSPSSLSASLGERVSLTCRASQEISGYLNWLQQKPDGTIKRLIYAASTLDSGVPKRFSGSRSGSDYSLTISRLESEDFADYYCLQYASYPRTFGGGTKLEIK
notes: Mouse monoclonal antibody from a hybridoma
Regarding B2, the Kd in experiment [4] is 107 nM; in experiment [6], approximately 100 nM; in experiment [7], 99.6 nM.

The record behind these values is patent US20210220472A1 (YISSUM RESEARCH DEVELOPMENT COMPANY OF THE HEBREW …, published 2021).
